According to patent US20260070987A1:

Biological target: equine FcRn (large alpha subunit p51) / equine beta-2-microglobulin complex, biotinylated (equine) (UniProt P30441)
Assay: SPR (Biacore), pH 6

UniProt P30441, sequence (P30441 21-118, one chain of several): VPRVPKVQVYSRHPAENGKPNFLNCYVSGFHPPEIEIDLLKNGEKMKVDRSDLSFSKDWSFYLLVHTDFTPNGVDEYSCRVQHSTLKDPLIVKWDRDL

B1: equine IgG1 D312F (antibody, part only; not given: Variable domains, not shown: another chain or arm of the molecule)
constant: ASTTAPKVFALAPGCGTTSDSTVALGCLVSGYFPEPVKVSWNSGSLTSGVHTFPSVLQSSGFYSLSSMVTVPASTWTSETYICNVVHAASNFKVDKRIEPIPDNHQKVCDMSKCPKCPAPELLGGPSVFIFPPNPKDTLMITRTPEVTCVVVDVSQENPDVKFNWYMDGVEVRTATTRPKEEQFNSTYRVVSVLRIQHQFWLSGKEFKCKVNNQALPQPIERTITKTKGRSQEPQVYVLAPHPDELSKSKVSVTCLVKDFYPPEINIEWQSNGQPELETKYSTTQAQQDSDGSYFLYSKLSVDRNRWQQGTTFTCGVMHEALHNHYTQKNVSKNPGK
In the case of B1, the Kd is reported as 0.0178 µM.

B2: equine IgG1 D312G (antibody, part only; not given: variable domains, not shown: another chain or arm of the molecule)
constant: ASTTAPKVFALAPGCGTTSDSTVALGCLVSGYFPEPVKVSWNSGSLTSGVHTFPSVLQSSGFYSLSSMVTVPASTWTSETYICNVVHAASNFKVDKRIEPIPDNHQKVCDMSKCPKCPAPELLGGPSVFIFPPNPKDTLMITRTPEVTCVVVDVSQENPDVKFNWYMDGVEVRTATTRPKEEQFNSTYRVVSVLRIQHQGWLSGKEFKCKVNNQALPQPIERTITKTKGRSQEPQVYVLAPHPDELSKSKVSVTCLVKDFYPPEINIEWQSNGQPELETKYSTTQAQQDSDGSYFLYSKLSVDRNRWQQGTTFTCGVMHEALHNHYTQKNVSKNPGK
B2 showed a Kd of 0.0162 µM.

B3: equine IgG1 D312H (antibody, part only; not given: variable domains, not shown: another chain or arm of the molecule)
constant: ASTTAPKVFALAPGCGTTSDSTVALGCLVSGYFPEPVKVSWNSGSLTSGVHTFPSVLQSSGFYSLSSMVTVPASTWTSETYICNVVHAASNFKVDKRIEPIPDNHQKVCDMSKCPKCPAPELLGGPSVFIFPPNPKDTLMITRTPEVTCVVVDVSQENPDVKFNWYMDGVEVRTATTRPKEEQFNSTYRVVSVLRIQHQHWLSGKEFKCKVNNQALPQPIERTITKTKGRSQEPQVYVLAPHPDELSKSKVSVTCLVKDFYPPEINIEWQSNGQPELETKYSTTQAQQDSDGSYFLYSKLSVDRNRWQQGTTFTCGVMHEALHNHYTQKNVSKNPGK
B3 showed a Kd of 0.0171 µM.

B4: equine IgG1 M252L (antibody, part only; not given: variable domains, not shown: another chain or arm of the molecule)
constant: ASTTAPKVFALAPGCGTTSDSTVALGCLVSGYFPEPVKVSWNSGSLTSGVHTFPSVLQSSGFYSLSSMVTVPASTWTSETYICNVVHAASNFKVDKRIEPIPDNHQKVCDMSKCPKCPAPELLGGPSVFIFPPNPKDTLLITRTPEVTCVVVDVSQENPDVKFNWYMDGVEVRTATTRPKEEQFNSTYRVVSVLRIQHQDWLSGKEFKCKVNNQALPQPIERTITKTKGRSQEPQVYVLAPHPDELSKSKVSVTCLVKDFYPPEINIEWQSNGQPELETKYSTTQAQQDSDGSYFLYSKLSVDRNRWQQGTTFTCGVMHEALHNHYTQKNVSKNPGK
Binder B4 has a Kd of 0.101 µM.

B5: equine IgG1 D312K (antibody, part only; not given: variable domains, not shown: another chain or arm of the molecule)
constant: ASTTAPKVFALAPGCGTTSDSTVALGCLVSGYFPEPVKVSWNSGSLTSGVHTFPSVLQSSGFYSLSSMVTVPASTWTSETYICNVVHAASNFKVDKRIEPIPDNHQKVCDMSKCPKCPAPELLGGPSVFIFPPNPKDTLMITRTPEVTCVVVDVSQENPDVKFNWYMDGVEVRTATTRPKEEQFNSTYRVVSVLRIQHQKWLSGKEFKCKVNNQALPQPIERTITKTKGRSQEPQVYVLAPHPDELSKSKVSVTCLVKDFYPPEINIEWQSNGQPELETKYSTTQAQQDSDGSYFLYSKLSVDRNRWQQGTTFTCGVMHEALHNHYTQKNVSKNPGK
B5 was tested, and the Kd was 0.0158 µM.

B6: equine IgG1 D312L (antibody, part only; not given: variable domains, not shown: another chain or arm of the molecule)
constant: ASTTAPKVFALAPGCGTTSDSTVALGCLVSGYFPEPVKVSWNSGSLTSGVHTFPSVLQSSGFYSLSSMVTVPASTWTSETYICNVVHAASNFKVDKRIEPIPDNHQKVCDMSKCPKCPAPELLGGPSVFIFPPNPKDTLMITRTPEVTCVVVDVSQENPDVKFNWYMDGVEVRTATTRPKEEQFNSTYRVVSVLRIQHQLWLSGKEFKCKVNNQALPQPIERTITKTKGRSQEPQVYVLAPHPDELSKSKVSVTCLVKDFYPPEINIEWQSNGQPELETKYSTTQAQQDSDGSYFLYSKLSVDRNRWQQGTTFTCGVMHEALHNHYTQKNVSKNPGK
Work on B6 yielded a Kd of 0.0246 µM.

B7: equine IgG1 D312M (antibody, part only; not given: Variable domains, not shown: another chain or arm of the molecule)
constant: ASTTAPKVFALAPGCGTTSDSTVALGCLVSGYFPEPVKVSWNSGSLTSGVHTFPSVLQSSGFYSLSSMVTVPASTWTSETYICNVVHAASNFKVDKRIEPIPDNHQKVCDMSKCPKCPAPELLGGPSVFIFPPNPKDTLMITRTPEVTCVVVDVSQENPDVKFNWYMDGVEVRTATTRPKEEQFNSTYRVVSVLRIQHQMWLSGKEFKCKVNNQALPQPIERTITKTKGRSQEPQVYVLAPHPDELSKSKVSVTCLVKDFYPPEINIEWQSNGQPELETKYSTTQAQQDSDGSYFLYSKLSVDRNRWQQGTTFTCGVMHEALHNHYTQKNVSKNPGK
With B7 the Kd was 0.0234 µM.

B8: equine IgG1 D312N (antibody, part only; not given: variable domains, not shown: another chain or arm of the molecule)
constant: ASTTAPKVFALAPGCGTTSDSTVALGCLVSGYFPEPVKVSWNSGSLTSGVHTFPSVLQSSGFYSLSSMVTVPASTWTSETYICNVVHAASNFKVDKRIEPIPDNHQKVCDMSKCPKCPAPELLGGPSVFIFPPNPKDTLMITRTPEVTCVVVDVSQENPDVKFNWYMDGVEVRTATTRPKEEQFNSTYRVVSVLRIQHQNWLSGKEFKCKVNNQALPQPIERTITKTKGRSQEPQVYVLAPHPDELSKSKVSVTCLVKDFYPPEINIEWQSNGQPELETKYSTTQAQQDSDGSYFLYSKLSVDRNRWQQGTTFTCGVMHEALHNHYTQKNVSKNPGK
B8 gave a Kd of 0.0223 µM.

B9: equine IgG1 D312P (antibody, part only; not given: variable domains, not shown: another chain or arm of the molecule)
constant: ASTTAPKVFALAPGCGTTSDSTVALGCLVSGYFPEPVKVSWNSGSLTSGVHTFPSVLQSSGFYSLSSMVTVPASTWTSETYICNVVHAASNFKVDKRIEPIPDNHQKVCDMSKCPKCPAPELLGGPSVFIFPPNPKDTLMITRTPEVTCVVVDVSQENPDVKFNWYMDGVEVRTATTRPKEEQFNSTYRVVSVLRIQHQPWLSGKEFKCKVNNQALPQPIERTITKTKGRSQEPQVYVLAPHPDELSKSKVSVTCLVKDFYPPEINIEWQSNGQPELETKYSTTQAQQDSDGSYFLYSKLSVDRNRWQQGTTFTCGVMHEALHNHYTQKNVSKNPGK
Binder B9 has a Kd of 0.00888 µM.

B10: equine IgG1 D312Q (antibody, part only; not given: variable domains, not shown: another chain or arm of the molecule)
constant: ASTTAPKVFALAPGCGTTSDSTVALGCLVSGYFPEPVKVSWNSGSLTSGVHTFPSVLQSSGFYSLSSMVTVPASTWTSETYICNVVHAASNFKVDKRIEPIPDNHQKVCDMSKCPKCPAPELLGGPSVFIFPPNPKDTLMITRTPEVTCVVVDVSQENPDVKFNWYMDGVEVRTATTRPKEEQFNSTYRVVSVLRIQHQQWLSGKEFKCKVNNQALPQPIERTITKTKGRSQEPQVYVLAPHPDELSKSKVSVTCLVKDFYPPEINIEWQSNGQPELETKYSTTQAQQDSDGSYFLYSKLSVDRNRWQQGTTFTCGVMHEALHNHYTQKNVSKNPGK
B10 showed a Kd of 0.046 µM.

B11: equine IgG1 D312S (antibody, part only; not given: variable domains, not shown: another chain or arm of the molecule)
constant: ASTTAPKVFALAPGCGTTSDSTVALGCLVSGYFPEPVKVSWNSGSLTSGVHTFPSVLQSSGFYSLSSMVTVPASTWTSETYICNVVHAASNFKVDKRIEPIPDNHQKVCDMSKCPKCPAPELLGGPSVFIFPPNPKDTLMITRTPEVTCVVVDVSQENPDVKFNWYMDGVEVRTATTRPKEEQFNSTYRVVSVLRIQHQSWLSGKEFKCKVNNQALPQPIERTITKTKGRSQEPQVYVLAPHPDELSKSKVSVTCLVKDFYPPEINIEWQSNGQPELETKYSTTQAQQDSDGSYFLYSKLSVDRNRWQQGTTFTCGVMHEALHNHYTQKNVSKNPGK
For B11, the Kd was 0.0167 µM.
